Measurements reported in US20180140673A1.

target: FGF receptor/BKL complex on HEK293 cells overexpressing human beta-klotho (BKL) (human) (UniProt Q86Z14); assay: cell-based or functional assay
Sequence (Q86Z14 whole entry, one chain of several): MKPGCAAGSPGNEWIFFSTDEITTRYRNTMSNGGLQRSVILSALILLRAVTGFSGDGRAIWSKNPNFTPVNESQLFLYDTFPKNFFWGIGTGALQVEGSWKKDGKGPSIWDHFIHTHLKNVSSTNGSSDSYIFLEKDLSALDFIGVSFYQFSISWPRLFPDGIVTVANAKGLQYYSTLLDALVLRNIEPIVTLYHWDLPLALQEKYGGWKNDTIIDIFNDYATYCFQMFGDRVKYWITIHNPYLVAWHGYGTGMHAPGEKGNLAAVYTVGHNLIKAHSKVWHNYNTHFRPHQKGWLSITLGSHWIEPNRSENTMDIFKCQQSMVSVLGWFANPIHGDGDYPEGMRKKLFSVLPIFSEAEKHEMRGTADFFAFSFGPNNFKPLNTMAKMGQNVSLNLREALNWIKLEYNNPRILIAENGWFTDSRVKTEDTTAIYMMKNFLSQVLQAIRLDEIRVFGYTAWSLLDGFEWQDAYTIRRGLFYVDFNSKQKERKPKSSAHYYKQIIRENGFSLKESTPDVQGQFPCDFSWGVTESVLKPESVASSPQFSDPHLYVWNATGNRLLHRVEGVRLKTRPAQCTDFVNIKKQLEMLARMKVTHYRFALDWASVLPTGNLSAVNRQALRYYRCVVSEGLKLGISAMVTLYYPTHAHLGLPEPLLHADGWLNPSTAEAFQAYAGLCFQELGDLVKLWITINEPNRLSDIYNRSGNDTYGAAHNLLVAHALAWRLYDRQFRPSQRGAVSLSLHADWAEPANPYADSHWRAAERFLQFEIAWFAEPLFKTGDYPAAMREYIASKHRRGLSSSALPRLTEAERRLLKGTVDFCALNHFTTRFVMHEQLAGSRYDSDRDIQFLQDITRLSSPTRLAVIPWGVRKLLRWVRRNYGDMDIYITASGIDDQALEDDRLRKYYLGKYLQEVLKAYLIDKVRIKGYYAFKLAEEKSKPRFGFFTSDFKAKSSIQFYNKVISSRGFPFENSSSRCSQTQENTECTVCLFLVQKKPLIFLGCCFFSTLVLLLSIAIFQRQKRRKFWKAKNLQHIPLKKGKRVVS

S{Beta-179}-2-aminoethylsulfanyl-Ala[Gln121,Leu168,Cys179]FGF21, sequence (Q9NSA1 other isoform, or with tags, fused parts or gaps limits assumed): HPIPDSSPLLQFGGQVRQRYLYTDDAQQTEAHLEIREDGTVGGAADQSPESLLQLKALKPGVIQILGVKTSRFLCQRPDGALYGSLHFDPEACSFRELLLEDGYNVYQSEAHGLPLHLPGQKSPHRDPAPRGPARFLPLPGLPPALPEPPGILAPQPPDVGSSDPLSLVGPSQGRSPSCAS
S{Beta-176}-2-aminoethylsulfanyl-Ala[Gln121,Leu168,Cys176]FGF21, sequence (Q9NSA1 other isoform, or with tags, fused parts or gaps limits assumed): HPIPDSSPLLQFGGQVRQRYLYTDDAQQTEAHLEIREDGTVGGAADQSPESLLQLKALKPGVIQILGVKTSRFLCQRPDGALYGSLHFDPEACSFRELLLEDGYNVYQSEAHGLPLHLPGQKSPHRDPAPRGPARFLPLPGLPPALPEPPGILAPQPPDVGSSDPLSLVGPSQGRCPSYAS
S{Beta-178}-2-aminoethylsulfanyl-Ala[Gln121,Leu168,Cys178]FGF21, sequence (Q9NSA1 other isoform, or with tags, fused parts or gaps limits assumed): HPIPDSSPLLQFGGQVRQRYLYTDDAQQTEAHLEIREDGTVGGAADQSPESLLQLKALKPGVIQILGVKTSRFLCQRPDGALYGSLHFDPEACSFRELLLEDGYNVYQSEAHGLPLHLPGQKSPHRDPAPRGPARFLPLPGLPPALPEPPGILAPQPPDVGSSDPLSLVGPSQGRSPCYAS
Ala[Gln121,Leu168]FGF21, sequence (Q9NSA1 other isoform, or with tags, fused parts or gaps limits assumed): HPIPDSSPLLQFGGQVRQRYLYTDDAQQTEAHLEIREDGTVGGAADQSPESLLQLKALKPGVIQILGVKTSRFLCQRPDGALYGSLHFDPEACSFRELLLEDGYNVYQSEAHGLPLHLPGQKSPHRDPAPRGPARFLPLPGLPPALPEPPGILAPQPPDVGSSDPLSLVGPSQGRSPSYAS
Ala[Gln121,Leu168,Cys170]FGF21, sequence (Q9NSA1 other isoform, or with tags, fused parts or gaps limits assumed): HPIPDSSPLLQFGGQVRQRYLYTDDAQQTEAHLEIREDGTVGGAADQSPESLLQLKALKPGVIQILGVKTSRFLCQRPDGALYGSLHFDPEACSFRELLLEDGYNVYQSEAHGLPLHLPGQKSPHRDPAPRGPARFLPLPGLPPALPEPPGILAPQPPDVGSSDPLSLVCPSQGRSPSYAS
Ala[Gln121,Leu168,Cys169]FGF21, sequence (Q9NSA1 other isoform, or with tags, fused parts or gaps limits assumed): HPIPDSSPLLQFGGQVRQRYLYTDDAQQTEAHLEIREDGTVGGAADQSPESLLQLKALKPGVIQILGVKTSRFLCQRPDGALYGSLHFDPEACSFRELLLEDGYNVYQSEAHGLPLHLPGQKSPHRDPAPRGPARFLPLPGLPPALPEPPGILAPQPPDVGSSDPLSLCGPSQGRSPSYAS
Ala[Gln121,Leu168,Cys175]FGF21, sequence (Q9NSA1 other isoform, or with tags, fused parts or gaps limits assumed): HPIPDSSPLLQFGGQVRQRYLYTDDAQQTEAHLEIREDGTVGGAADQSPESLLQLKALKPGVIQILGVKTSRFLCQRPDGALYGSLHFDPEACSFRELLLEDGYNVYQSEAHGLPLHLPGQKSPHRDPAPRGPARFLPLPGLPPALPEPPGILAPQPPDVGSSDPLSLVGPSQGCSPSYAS
Ala[Gln121,Leu168,Cys177]FGF21, sequence (Q9NSA1 other isoform, or with tags, fused parts or gaps limits assumed): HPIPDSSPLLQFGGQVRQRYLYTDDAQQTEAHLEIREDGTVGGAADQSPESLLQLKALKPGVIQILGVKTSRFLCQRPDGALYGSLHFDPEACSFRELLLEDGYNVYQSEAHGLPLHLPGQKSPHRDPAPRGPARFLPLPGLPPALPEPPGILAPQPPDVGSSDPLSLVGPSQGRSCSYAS
Ala[Gln121,Leu168,Cys174]FGF21, sequence (Q9NSA1 other isoform, or with tags, fused parts or gaps limits assumed): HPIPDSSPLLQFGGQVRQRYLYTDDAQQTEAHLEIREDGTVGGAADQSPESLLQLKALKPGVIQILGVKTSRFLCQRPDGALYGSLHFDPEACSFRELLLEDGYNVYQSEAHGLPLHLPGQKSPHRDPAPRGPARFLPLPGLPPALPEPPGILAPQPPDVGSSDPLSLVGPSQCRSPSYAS
Ala[Gln121,Leu168,Cys172]FGF21, sequence (Q9NSA1 other isoform, or with tags, fused parts or gaps limits assumed): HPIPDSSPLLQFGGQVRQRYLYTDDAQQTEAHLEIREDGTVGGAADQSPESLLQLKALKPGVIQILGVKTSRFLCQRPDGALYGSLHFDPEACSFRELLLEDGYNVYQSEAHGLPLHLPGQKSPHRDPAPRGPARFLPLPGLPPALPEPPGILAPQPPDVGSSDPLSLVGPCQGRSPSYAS
Ala[Gln121,Leu168,Cys173]FGF21, sequence (Q9NSA1 other isoform, or with tags, fused parts or gaps limits assumed): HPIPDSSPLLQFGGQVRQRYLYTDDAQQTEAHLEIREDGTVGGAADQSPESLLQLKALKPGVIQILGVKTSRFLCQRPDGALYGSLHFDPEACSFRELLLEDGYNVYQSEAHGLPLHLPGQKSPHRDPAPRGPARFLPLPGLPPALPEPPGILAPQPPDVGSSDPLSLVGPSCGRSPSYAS

EC50 (0.1% HSA) (nM), pERK, HEK293/BKL cells [nM]	EC50 (nM), pERK, HEK293/BKL cells [nM]	Substance
4	2	16-[[(1S)-4-[2-[2-[2-[2-[2-[2-(2-acetamidoethylamino)-2-oxo-ethoxy]ethoxy]ethylamino]-2-oxo-ethoxy]ethoxy]ethylamino]-1-carboxy-4-oxo-butyl]amino]-16-oxo-hexadecanoic acid-Ala[Gln121,Leu168,Cys174]FGF21 (from UniProt Q9NSA1 29-209) (ligand)
20	1	18-[[(1S)-4-[2-[2-[2-[2-[2-[2-(2-acetamidoethylamino)-2-oxo-ethoxy]ethoxy]ethylamino]-2-oxo-ethoxy]ethoxy]ethylamino]-1-carboxy-4-oxo-butyl]amino]-18-oxo-octadecanoic acid-Ala[Gln121,Leu168,Cys170]FGF21 (from UniProt Q9NSA1 29-209) (ligand)
1	1	18-[[(1S)-4-[2-[2-[2-[2-[2-[2-(2-acetamidoethylamino)-2-oxo-ethoxy]ethoxy]ethylamino]-2-oxo-ethoxy]ethoxy]ethylamino]-1-carboxy-4-oxo-butyl]amino]-18-oxo-octadecanoic acid-Ala[Gln121,Leu168,Cys174]FGF21 (from UniProt Q9NSA1 29-209) (ligand)
35.5	4	20-[[4-[[(1S)-4-[2-[2-[2-[2-[2-[2-[[(1S)-5-[(2-acetamido]-1-carboxy-pentyl]amino]-2-oxo-ethoxy]ethoxy]ethylamino]-2-oxo-ethoxy]ethoxy]ethylamino]-1-carboxy-4-oxo-butyl]carbamoyl]cyclohexyl]methylamino]-20-oxo-icosanoic acid-Ala[Gln121,Leu168,Cys180]FGF21 (from UniProt Q9NSA1 29-209) (ligand)
52.5	6.1	20-[[(1S)-4-[2-[2-[2-[2-[2-[2-[[(1S)-5-acetamido-1-carboxy-pentyl]amino]-2-oxo-ethoxy]ethoxy]ethylamino]-2-oxo-ethoxy]ethoxy]ethylamino]-1-carboxy-4-oxo-butyl]amino]-20-oxo-icosanoic acid-Ala[Gln121,Leu168,Cys180]FGF21 (from UniProt Q9NSA1 29-209) (ligand)
65.5	10.3	20-[[(1S)-4-[[(1S)-4-[2-[2-[2-[2-[2-[2-[[(1S)-5-acetamido-1-carboxy-pentyl]amino]-2-oxo-ethoxy]ethoxy]ethylamino]-2-oxo-ethoxy]ethoxy]ethylamino]-1-carboxy-4-oxo-butyl]amino]-1-carboxy-4-oxo-butyl]amino]-20-oxo-icosanoic acid-Ala[Gln121,Leu168,Cys180]FGF21 (from UniProt Q9NSA1 29-209) (ligand)
7.1	4.2	(2S)-6-acetamido-2-[[2-[2-[2-[[2-[2-[2-[[(4S)-4-carboxy-4-(16-sulfohexadecanoylamino)butanoyl]amino]ethoxy]ethoxy]acetyl]amino]ethoxy]ethoxy]acetyl]amino]hexadecanoic acid-Ala[Gln121,Leu168,Cys180]FGF21 (from UniProt Q9NSA1 29-209) (ligand)
	4	Ala[Gln121,Cys167,Leu168,]FGF21 (from UniProt Q9NSA1 29-209) (ligand)
	492	Ala[Gln121,Cys168]FGF21 (from UniProt Q9NSA1 29-209) (ligand)
	5	Ala[Gln121,Leu168,Cys172]FGF21 (from UniProt Q9NSA1 29-209) (ligand)
	416	Ala[Gln121,Leu168,Cys177]FGF21 (from UniProt Q9NSA1 29-209) (ligand)
4260	667	S{Beta-168}-[2-[2-[[2-[2-[2-[[2-[2-[2-[[(4S)-4-carboxy-4-(13-carboxytridecanoyl-amino)butanoyl]amino]ethoxy]ethoxy]acetyl]amino]ethoxy]ethoxy]acetyl]amino]-ethylamino]-2-oxoethyl]-Ala[Gln121,Cys168]FGF21 (from UniProt Q9NSA1 29-209) (ligand)
4	3	S{Beta-173}-[2-[2-[[2-[2-[2-[[2-[2-[2-[[(4S)-4-carboxy-4-(15-carboxypentadecanoyl-amino)butanoyl]amino]ethoxy]ethoxy]acetyl]amino]ethoxy]ethoxy]acetyl]amino]-ethylamino]-2-oxoethyl]-Ala[Gln121,Leu168,Cys173]FGF21 (from UniProt Q9NSA1 29-209) (ligand)
373	214	S{Beta-176}-[2-[2-[[2-[2-[2-[[2-[2-[2-[[(4S)-4-carboxy-4-(15-carboxypentadecanoyl-amino)butanoyl]amino]ethoxy]ethoxy]acetyl]amino]ethoxy]ethoxy]acetyl]amino]-ethylamino]-2-oxoethyl]-Ala[Gln121,Leu168,Cys176]FGF21 (from UniProt Q9NSA1 29-209) (ligand)
	69	S{Beta-179}-2-aminoethylsulfanyl-Ala[Gln121,Leu168,Cys179]FGF21 (from UniProt Q9NSA1 29-209) (ligand)
137	154	S{Beta-181}-[2-[2-[[2-[2-[2-[[2-[2-[2-[[(4S)-4-carboxy-4-(11-carboxyundecanoyl-amino)butanoyl]amino]ethoxy]ethoxy]acetyl]amino]ethoxy]ethoxy]acetyl]amino]-ethylamino]-2-oxoethyl]-Ala[Gln121,Leu168,Cys181]FGF21 (from UniProt Q9NSA1 29-208) (ligand)

The remaining lines, values behind:

Substance	EC50 (0.1% HSA) (nM), pERK, HEK293/BKL cells [nM]	EC50 (nM), pERK, HEK293/BKL cells [nM]
16-[[4-[[(1S)-4-[2-[2-[2-[2-[2-[2-[[(1S)-5-[(2-acetamido]-1-carboxy-pentyl]amino]-2-oxo-ethoxy]ethoxy]ethylamino]-2-oxo-ethoxy]ethoxy]ethylamino]-1-carboxy-4-oxo-butyl]carbamoyl]cyclohexyl]methylamino]-16-oxo-hexadecanoic acid-Ala[Gln121,Leu168,Cys180]FGF21 (from UniProt Q9NSA1 29-209) (ligand)	2.1	4
18-[[4-[[(1S)-4-[2-[2-[2-[2-[2-[2-[[(1S)-5-[(2-acetamido]-1-carboxy-pentyl]amino]-2-oxo-ethoxy]ethoxy]ethylamino]-2-oxo-ethoxy]ethoxy]ethylamino]-1-carboxy-4-oxo-butyl]carbamoyl]cyclohexyl]methylamino]-18-oxo-octadecanoic acid-Ala[Gln121,Leu168,Cys180]FGF21 (from UniProt Q9NSA1 29-209) (ligand)	14	4
Ala[Gln121,Leu168,Cys169]FGF21 (from UniProt Q9NSA1 29-209) (ligand)		22
Ala[Gln121,Leu168,Cys170]FGF21 (from UniProt Q9NSA1 29-209) (ligand)		7
Ala[Gln121,Leu168,Cys173]FGF21 (from UniProt Q9NSA1 29-209) (ligand)		4
Ala[Gln121,Leu168,Cys174]FGF21 (from UniProt Q9NSA1 29-209) (ligand)		5
Ala[Gln121,Leu168,Cys175]FGF21 (from UniProt Q9NSA1 29-209) (ligand)		11
Ala[Gln121,Leu168]FGF21 (from UniProt Q9NSA1 29-209) (ligand)		2
S{Beta-169}-[2-[2-[[2-[2-[2-[[2-[2-[2-[[(4S)-4-carboxy-4-(15-carboxypentadecanoyl-amino)butanoyl]amino]ethoxy]ethoxy]acetyl]amino]ethoxy]ethoxy]acetyl]amino]-ethylamino]-2-oxoethyl]-Ala[Gln121,Leu168,Cys169]FGF21 (from UniProt Q9NSA1 29-209) (ligand)	20	25
S{Beta-174}-[2-[2-[[2-[2-[2-[[2-[2-[2-[[(4S)-4-carboxy-4-(13-carboxytridecanoyl-amino)butanoyl]amino]ethoxy]ethoxy]acetyl]amino]ethoxy]ethoxy]acetyl]amino]-ethylamino]-2-oxoethyl]-Ala[Gln121,Leu168,Cys174]FGF21 (from UniProt Q9NSA1 29-209) (ligand)	4	4
S{Beta-175}-[2-[2-[[2-[2-[2-[[2-[2-[2-[[(4S)-4-carboxy-4-(15-carboxypentadecanoyl-amino)butanoyl]amino]ethoxy]ethoxy]acetyl]amino]ethoxy]ethoxy]acetyl]amino]-ethylamino]-2-oxoethyl]-Ala[Gln121,Leu168,Cys175]FGF21 (from UniProt Q9NSA1 29-209) (ligand)	1	1
S{Beta-176}-2-aminoethylsulfanyl-Ala[Gln121,Leu168,Cys176]FGF21 (from UniProt Q9NSA1 29-209) (ligand)		227
S{Beta-178}-2-aminoethylsulfanyl-Ala[Gln121,Leu168,Cys178]FGF21 (from UniProt Q9NSA1 29-209) (ligand)		105

target: FGFR1c receptor/BKL complex on differentiated mouse 3T3-L1 adipocytes (mouse) (UniProt P16092); assay: cell-based or functional assay
Sequence (P16092 22-822, chain 1 of 2): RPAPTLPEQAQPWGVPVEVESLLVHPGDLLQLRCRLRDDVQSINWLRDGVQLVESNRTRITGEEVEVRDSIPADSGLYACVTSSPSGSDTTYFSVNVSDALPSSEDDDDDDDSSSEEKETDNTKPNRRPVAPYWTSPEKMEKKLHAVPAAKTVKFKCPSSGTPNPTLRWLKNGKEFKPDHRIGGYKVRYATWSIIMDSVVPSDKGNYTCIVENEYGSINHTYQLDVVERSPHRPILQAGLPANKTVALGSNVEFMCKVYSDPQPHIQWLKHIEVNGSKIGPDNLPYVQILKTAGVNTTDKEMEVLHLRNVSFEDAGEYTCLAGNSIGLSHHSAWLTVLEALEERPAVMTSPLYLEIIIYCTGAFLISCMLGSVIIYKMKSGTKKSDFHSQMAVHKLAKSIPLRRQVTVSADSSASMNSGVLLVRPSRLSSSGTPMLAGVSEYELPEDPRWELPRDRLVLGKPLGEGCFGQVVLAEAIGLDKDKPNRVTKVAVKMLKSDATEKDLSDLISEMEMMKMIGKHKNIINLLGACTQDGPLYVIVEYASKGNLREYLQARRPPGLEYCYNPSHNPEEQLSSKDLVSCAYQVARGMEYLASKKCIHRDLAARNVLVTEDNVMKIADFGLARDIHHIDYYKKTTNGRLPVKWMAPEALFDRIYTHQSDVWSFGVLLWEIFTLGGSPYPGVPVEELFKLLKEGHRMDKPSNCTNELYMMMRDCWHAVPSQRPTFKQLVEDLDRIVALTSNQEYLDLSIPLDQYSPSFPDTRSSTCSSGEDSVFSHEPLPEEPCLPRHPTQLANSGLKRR
Sequence (Q99N32 whole entry, chain 2 of 2, further chain): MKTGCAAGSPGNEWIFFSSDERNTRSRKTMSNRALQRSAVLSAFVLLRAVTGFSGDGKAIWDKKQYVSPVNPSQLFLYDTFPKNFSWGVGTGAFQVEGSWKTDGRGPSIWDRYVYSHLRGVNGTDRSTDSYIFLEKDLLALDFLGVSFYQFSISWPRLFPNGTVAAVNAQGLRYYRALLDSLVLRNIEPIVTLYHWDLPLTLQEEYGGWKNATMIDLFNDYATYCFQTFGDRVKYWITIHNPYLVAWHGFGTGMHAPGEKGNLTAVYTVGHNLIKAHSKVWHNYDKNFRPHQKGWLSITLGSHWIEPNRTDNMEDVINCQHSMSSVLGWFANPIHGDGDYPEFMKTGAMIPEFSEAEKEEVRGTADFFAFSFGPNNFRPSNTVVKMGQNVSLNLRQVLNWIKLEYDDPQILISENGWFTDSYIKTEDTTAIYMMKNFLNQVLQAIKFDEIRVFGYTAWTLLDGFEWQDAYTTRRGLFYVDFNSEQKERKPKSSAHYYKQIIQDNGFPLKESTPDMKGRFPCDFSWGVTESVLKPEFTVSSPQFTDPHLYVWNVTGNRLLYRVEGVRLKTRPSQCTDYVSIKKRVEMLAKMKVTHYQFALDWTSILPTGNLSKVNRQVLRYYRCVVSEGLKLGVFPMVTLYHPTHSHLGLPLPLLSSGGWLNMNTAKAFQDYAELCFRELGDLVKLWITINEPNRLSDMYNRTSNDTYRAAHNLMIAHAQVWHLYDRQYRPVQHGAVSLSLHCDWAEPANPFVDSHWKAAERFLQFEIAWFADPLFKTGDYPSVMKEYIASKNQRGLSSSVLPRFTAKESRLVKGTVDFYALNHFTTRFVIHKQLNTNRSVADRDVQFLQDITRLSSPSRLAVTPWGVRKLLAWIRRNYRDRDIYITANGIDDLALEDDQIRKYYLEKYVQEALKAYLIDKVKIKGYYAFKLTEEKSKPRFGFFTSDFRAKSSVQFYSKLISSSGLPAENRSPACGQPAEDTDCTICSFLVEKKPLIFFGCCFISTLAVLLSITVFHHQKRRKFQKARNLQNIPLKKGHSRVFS

Glucose uptake EC50 (nM), 3T3-L1 adipocytes [nM]	Glucose uptake Emax (%), 3T3-L1 adipocytes [%]	Substance
3.1	85	Ala[Gln121,Leu168]FGF21 (from UniProt Q9NSA1 29-209) (ligand)
73	84	S{Beta-176}-2-aminoethylsulfanyl-Ala[Gln121,Leu168,Cys176]FGF21 (from UniProt Q9NSA1 29-209) (ligand)
50	69	S{Beta-178}-2-aminoethylsulfanyl-Ala[Gln121,Leu168,Cys178]FGF21 (from UniProt Q9NSA1 29-209) (ligand)
25	77	S{Beta-179}-2-aminoethylsulfanyl-Ala[Gln121,Leu168,Cys179]FGF21 (from UniProt Q9NSA1 29-209) (ligand)
